Here are results for 3 molecules from publication PMC8991485, “Protein purification strategies must consider downstream applications and individual biological characteristics” (Microbial Cell Factories, 2022).

As a reminder, the stoichiometry N is the number of molecules, sites or subunits per partner or assembly.

In data set [1] the target is wild-type recombinant soluble LLT1. As to the kind of experiment: SEC; gel filtration of recombinant soluble LLT1 made in HEK293T; peak at 16 ml taken as the non-covalent dimer. In general terms: In gel filtration, larger molecules generally elute earlier.
The target of data set [2] is cysteine-less mutant of Galectin-1 (UniProt P09382). As to the kind of experiment: AUC; analytical ultracentrifugation (sedimentation) of Galectin-1 purified in reducing or non-reducing conditions.
Data set [3] concerns the molecule itself. As to the kind of experiment: SEC; gel filtration of recombinant soluble LLT1 made in HEK293T; peak at 16 ml taken as the non-covalent dimer.

Turning to “wild-type recombinant soluble LLT1 (domain or fragment)”, in data set [1], the stoichiometry N was 2.
As for “cysteine-less mutant of Galectin-1 (from UniProt P09382 1-135)”, the stoichiometry N in data set [2] turned out to be 2.

B1: soluble LLT1 H176C mutant (domain or fragment)
chain: QAACPESWIGFQRKCFYFSDDTKNWTSSQRFCDSQDADLAQVESFQELNFLLRYKGPSDHWIGLSREQGQPWKWINGTEWTRQFPILGAGECAYLNDKGASSARCYTERKWICSKSDIHV
notes: soluble fragment of the lymphocyte receptor LLT1 with H176C, which restores the disulfide Cys163-Cys176; also called second mutant; source: HEK293T cell line, purified (gel filtration)
In the case of B1, the “stoichiometry N” value in data set [3] amounted to 2.
